Measurements: patent US20240092935A1

Target: Asialo-BSM (desialylated bovine submaxillary mucin) (bovine)
Test: fluorescence binding assay on an Asialo-BSM-coated 96-well plate (0.5 µg/well), biotinylated VVA detected with Alexa Fluor 488 streptavidin, fit with GraphPad Prism

Kd: 53.3 nM
Substance: Vicia villosa agglutinin (VVA), biotinylated (from UniProt P56625 1-185)
